Laboratory results published in patent publication US20150152150A1.

Target: human Y1 receptor (human) (UniProt P25929)
Assay: cell-based or functional assay

Sequence of human Y1 receptor (human) (P25929 whole entry): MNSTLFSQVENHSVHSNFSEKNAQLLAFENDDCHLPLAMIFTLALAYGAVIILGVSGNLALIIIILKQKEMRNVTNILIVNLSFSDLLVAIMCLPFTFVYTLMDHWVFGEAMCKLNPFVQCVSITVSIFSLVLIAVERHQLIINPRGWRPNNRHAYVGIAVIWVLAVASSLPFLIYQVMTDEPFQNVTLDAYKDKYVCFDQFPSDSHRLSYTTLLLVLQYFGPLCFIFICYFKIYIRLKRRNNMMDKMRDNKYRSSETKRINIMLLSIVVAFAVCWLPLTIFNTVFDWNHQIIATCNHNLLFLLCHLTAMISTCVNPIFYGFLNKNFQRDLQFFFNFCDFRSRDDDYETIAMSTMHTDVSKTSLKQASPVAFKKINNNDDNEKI

Row | EC50, Actone functional potency assay [nM] | Substance
1 | > 1000 | 4-N{alpha}-(3-Methylbutanoyl)-7-N{Epsilon}-[2-[2-[2-[[2-[2-[2-[[(4S)-4-carboxy-4-(17-carboxyheptadecanoylamino)butanoyl]amino]ethoxy]ethoxy]acetyl]amino]ethoxy]-ethoxy]acetyl]-[Arg4,Lys7,Gln18,Trp30,NMeArg35]hPYY(4-36) (peptide)
2 | > 1000 | 4-N{alpha}-(3-Methylbutanoyl)-7-N{Epsilon}-[2-[2-[2-[[2-[2-[2-[[(4S)-4-carboxy-4-(15-carboxypentadecanoylamino)butanoyl]amino]ethoxy]ethoxy]acetyl]amino]-ethoxy]ethoxy]acetyl]-[Arg4,Lys7,Gln18,Trp30,NMeArg35]hPYY(4-36) (peptide)
3 | > 1000 | 4-N{alpha}-(3-Methylbutanoyl)-7-N{Epsilon}-[4-[3-[2-[2-[3-[[(4S)-4-carboxy-4-(16-sulfohexadecanoylamino)butanoyl]amino]propoxy]ethoxy]ethoxy]propylamino]-4-oxobutanoyl]-[Arg4,Lys7,Gln18,Trp30,NMeArg35]hPYY(4-36) (peptide)
4 | > 1000 | 7-N{Epsilon}-[2-[2-[2-[[2-[2-[2-[[(4S)-4-carboxy-4-(16-sulfohexadecanoylamino)-butanoyl]amino]ethoxy]ethoxy]acetyl]amino]ethoxy]ethoxy]acetyl]-[Lys7,Gln18, Trp30,NMeArg35]hPYY(3-36) (peptide)
5 | > 1000 | 4-N{alpha}-(3-Methylbutanoyl)-7-N{Epsilon}-[2-[2-[2-[[2-[2-[2-[[(4S)-4-carboxy-4-(16-carboxy-hexadecanoylamino)butanoyl]amino]ethoxy]ethoxy]acetyl]]amino]ethoxy]-ethoxy]acetyl]-[Arg4,Lys7,Gln18,Trp30,NMeArg35]hPYY(4-36) (peptide)
6 | > 1000 | 4-N{alpha}-(3-Methylbutanoyl)-7-N{Epsilon}-[2-[2-[2-[[2-[2-[2-[[(4S)-4-carboxy-4-(16-sulfohexadecanoylamino)butanoyl]amino]ethoxy]ethoxy]acetyl]amino]-ethoxy]ethoxy]acetyl]-[Lys7,Gln18,Trp30,NMeArg35]hPYY(4-36) (peptide)
7 | > 1000 | 7-N{Epsilon}-[2-[2-[2-[[2-[2-[2-[[(4S)-4-carboxy-4-(16-sulfohexadecanoylamino)-butanoyl]amino]ethoxy]ethoxy]acetyl]amino]ethoxy]ethoxy]acetyl]-[Arg4,Lys7,Gln18, Trp30,NMeArg35]hPYY(3-36) (peptide)
8 | > 1000 | 4-N{alpha}-(3-Methylbutanoyl)-7-N{Epsilon}-[2-[2-[2-[[2-[2-[2-[[(4S)-4-carboxy-4-(14-carboxy-tetracanoylamino)butanoyl]amino]ethoxy]ethoxy]acetyl]]amino]ethoxy]-ethoxy]acetyl]-[Arg4,Lys7,Gln18,Trp30,NMeArg35]hPYY(4-36) (peptide)
9 | > 1000 | 4-N{alpha}-(hexanoyl)-7-N{Epsilon}-[2-[2-[2-[[2-[2-[2-[[(4S)-4-carboxy-4-(16-sulfohexadecanoylamino)butanoyl]amino]ethoxy]ethoxy]acetyl]amino]ethoxy]-ethoxy]acetyl]-[Arg4,Lys7,Gln18,Trp30,NMeArg35]hPYY(4-36) (peptide)
10 | > 1000 | 4-N{alpha}-(3-Methylbutanoyl)-7-N{Epsilon}-[(2S)-2-amino-6-[[2-[2-[2-[[(4S)-4-carboxy-4-(16-sulfohexadecanoylamino)butanoyl]amino]ethoxy]ethoxy]acetyl]-amino]hexanoyl]]-[Arg4,Lys7,Gln18,Trp30,NMeArg35]hPYY(4-36) (peptide)
11 | > 1000 | 4-N{alpha}-(3-Methylbutanoyl)-7-N{Epsilon}-[4-[3-[2-[2-[3-[[4-[3-[2-[2-[3-[[(4S)-4-carboxy-4-(16-sulfohexadecanoylamino)butanoyl]amino]propoxy]ethoxy]-ethoxy]propylamino]-4-oxobutanoyl]amino]propoxy]ethoxy]ethoxy]propylamino]-4-oxobutanoyl]-[Arg4,Lys7,Gln18,Trp30,NMeArg35]hPYY(4-36) (peptide)
12 | > 1000 | 4-N{alpha}-(3-Methylbutanoyl)-7-N{Epsilon}-[2-[2-[2-[[2-[2-[2-[[(4S)-4-carboxy-4-(16-sulfohexadecanoylamino)-butanoyl]amino]ethoxy]ethoxy]acetyl]amino]ethoxy]-ethoxy]acetyl]-[Arg4,Lys7,Gln18,Trp30,NMeArg35]hPYY(4-36) (peptide)
13 | > 1000 | 4-N{alpha}-(3-Methylbutanoyl)-7-N{Epsilon}-[2-[2-[2-[[2-[2-[2-[[2-[2-[2-[[(4S)-4-carboxy-4-(16-sulfohexadecanoylamino)butanoyl]amino]ethoxy]ethoxy]acetyl]-amino]ethoxy]ethoxy]acetyl]amino]ethoxy]ethoxy]acetyl]-[Arg4,Lys7,Gln18,Trp30,NMeArg35]hPYY(4-36) (peptide)
14 | > 1000 | 4-N{alpha}-(3-methyl-pentanoyl)-7-N{Epsilon}-[2-[2-[2-[[2-[2-[2-[[(4S)-4-carboxy-4-(16-sulfohexadecanoylamino)butanoyl]amino]ethoxy]ethoxy]acetyl]amino]-ethoxy]ethoxy]acetyl]-[Lys7,Gln18,Trp30,NMeArg35]hPYY(4-36) (peptide)
15 | > 1000 | 7-N{Epsilon}-[2-[2-[2-[[2-[2-[2-[[2-[2-[2-[[2-[2-[2-[4-[16-(1H-tetrazol-5-yl)-hexadecanoylsulfamoyl]butanoylamino]ethoxy]ethoxy]acetyl]amino]ethoxy]-ethoxy]acetyl]amino]ethoxy]ethoxy]acetyl]amino]ethoxy]ethoxy]acetyl]-[Lys7,Gln18,Trp30,NMeArg35]hPYY(3-36) (peptide)
16 | > 1000 | 4-N{alpha}-(3-Methylbutanoyl)-7-N{Epsilon}-[2-[2-[2-[[2-[2-[2-[[(4S)-4-carboxy-4-(14-sulfotetradecanoylamino)butanoyl]amino]ethoxy]ethoxy]acetyl]]amino]ethoxy]-ethoxy]acetyl]-[Arg4,Lys7,Gln18,Trp30,NMeArg35]hPYY(4-36) (peptide)

Target: human Y4 receptor (human) (UniProt P50391)
Assay: cell-based or functional assay

Sequence of human Y4 receptor (human) (P50391 whole entry): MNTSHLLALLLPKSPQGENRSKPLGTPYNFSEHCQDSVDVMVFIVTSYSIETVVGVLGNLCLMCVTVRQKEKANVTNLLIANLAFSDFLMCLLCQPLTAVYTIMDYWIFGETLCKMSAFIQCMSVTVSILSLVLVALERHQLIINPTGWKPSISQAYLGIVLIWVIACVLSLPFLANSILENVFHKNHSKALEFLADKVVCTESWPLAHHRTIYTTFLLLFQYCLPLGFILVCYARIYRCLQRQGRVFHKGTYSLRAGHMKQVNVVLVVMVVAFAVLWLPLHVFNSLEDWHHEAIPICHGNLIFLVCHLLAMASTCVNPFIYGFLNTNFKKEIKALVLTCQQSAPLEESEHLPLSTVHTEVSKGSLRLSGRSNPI

Row | EC50, Actone functional potency assay [nM] | Substance
17 | > 1000 | 4-N{alpha}-(3-Methylbutanoyl)-7-N{Epsilon}-[2-[2-[2-[[2-[2-[2-[[(4S)-4-carboxy-4-(16-sulfohexadecanoylamino)butanoyl]amino]ethoxy]ethoxy]acetyl]amino]-ethoxy]ethoxy]acetyl]-[Lys7,Gln18,Trp30,NMeArg35]hPYY(4-36) (peptide)
18 | > 1000 | 4-N{alpha}-(3-Methylbutanoyl)-7-N{Epsilon}-[2-[2-[2-[[2-[2-[2-[[(4S)-4-carboxy-4-(16-sulfohexadecanoylamino)-butanoyl]amino]ethoxy]ethoxy]acetyl]amino]ethoxy]-ethoxy]acetyl]-[Arg4,Lys7,D-isoAsp11,Gln18,Trp30,NMeArg35]hPYY(4-36) (peptide)
19 | > 1000 | 4-N{alpha}-(3-Methylbutanoyl)-7-N{Epsilon}-[2-[2-[2-[[2-[2-[2-[[(4S)-4-carboxy-4-[[(4S)-4-carboxy-4-(16-sulfohexadecanoylamino)butanoyl]amino]butanoyl]amino]-ethoxy]ethoxy]acetyl]amino]ethoxy]ethoxy]acetyl]-[Lys7,Gln18,Trp30,NMeArg35] hPYY(4-36) (peptide)
